Data published in patent US20060121580A1.

Legend:
[1] = target: SARS-CoV strain Frankfurt 1 (infectious virus); assay: cell-based or functional assay
[2] = target: SARS-CoV strain Frankfurt 2 (infectious virus); assay: cell-based or functional assay
[3] = target: fetal bovine serum (FBS), 10% preparation; assay: phage ELISA on coated 10% FBS
[4] = target: SARS-CoV preparation (Frankfurt 1 strain); assay: phage ELISA on coated SARS-CoV preparation, plate 2 (no phage antibody 0.211)

B1: bivalent scFv pyBi03-012C02 (scFv)
scFv: AMAQVQLVQSGAEVKKPGASVKVSCKASGYTFTSYGISWVRQAPGQGLEWMGWISAYNGNTNYAQKLQGRVTMTTDTSTSTAYMELSSLRSDDTAVYYCARMFRKSSFDSWGQGTLVTVSRGGGGSGGGGSGGGGSSELTQDPAVSVALGQTVRITCQGDSLRSYYASWYQQKPGQAPVLVIYGKNNRPSGIPDRFSGSSSGNTASLTITGAQAEDEADYYCNSRDSSGNHVVFGGGTKLTVLGAAA
Neutralization titer for Frankfurt 1 strain (dilution factor) [1]: < 20
Neutralization titer for Frankfurt 2 strain (dilution factor) [2]: < 20

B2: single-chain phage antibody SC03-012 (scFv)
scFv: B1 scFv
OD492 nm [3]: 0.1 OD492 nm

B3: bivalent scFv pyBi03-006C02 (scFv)
scFv: SMAEVQLVESGGGLVQPGGSLRLSCAASGFTFSGYPMHWVRQAPGKGLEWVAVISYDGSNKYYADSVKGRFTISRDNSKNTLYLQMNSLRAEDTAVYYCAKDGSPRTPSFDYWGQGTLVTVLEGTGGSGGTGSGTGTSELDIQMTQSPHSLSASVGDRVTITCRASQGISNYLAWYQQKPGKVPKLLIYAASTLQSGVPSRFSGSGSGTDFTLTISSLQPEDVGVYYCQQRFRTPVTFGQGTKLEIKRAAA
Neutralization titer for Frankfurt 1 strain (dilution factor) [1]: < 20
Neutralization titer for Frankfurt 2 strain (dilution factor) [2]: < 20

B4: single-chain phage antibody SC03-006 (scFv)
scFv: B3 scFv
OD492 nm [3]: 0.086 OD492 nm

B5: SC03-026 (scFv)
scFv: AMAQVQLVQSGGGLVQPGGSLRLSCAASGFTFSSYAMHWVRQAPGKGLEYVSGISSNGGSTYYANSVKGRFTISRDNSKNTLYLQMGSLRAEDMAVYYCARTTNRAFDIWGQGTMVTVSSGTGGSGGTGSGTGGSTDIQMTQSPDSLAVSLGERATINCKSSQSILYSSNSKNYLGWYQQKPGQPPKLLIYWASTRESGVPDRFSGSGSGTDFTLTISSLQAEDVAVYYCQQYYSTPYSFGQGTKVEIKRAA
OD492 nm [4]: 1.07 OD492 nm

B6: bivalent scFv pyBi03-015C02 (scFv)
scFv: AMAEVQLVESGGGVVRPGGSLRLSCAASGFTFDDYGMSWVRQAPGKGLEWVSGINWNGGSTGYADSVKGRFTISRDNAKNSLYLQMNSLRAEDTAVYYCARGLSLRPWGQGTLVTVSRGGGGSGGGGSGGGGSSELTQDPAVSVALGQTVRITCQGDSLRSYYASWYQQKPGQAPVLVIYGKNNRPSGIPDRFSGSSSGNTASLTITGAQAEDEADYYCNSRDSSGNHVVFGGGTKLTVLGAAA
Neutralization titer for Frankfurt 1 strain (dilution factor) [1]: < 20
Neutralization titer for Frankfurt 2 strain (dilution factor) [2]: < 20

B7: single-chain phage antibody SC03-015 (scFv)
scFv: B6 scFv
OD492 nm [3]: 0.077 OD492 nm
